Measured values from the DeepSol protein solubility set.

Experiment: soluble on expression in E. coli; label from the status in PepcDB or PDB records

Sequence | soluble on expression in E. coli
MQNVKHSYLACSSSSCCQFFSLFLSLCHAEHQIQTLSPSFAYTLLIFALLVSDKSEIALLSRHTHTYIFLPISSVHPSLELLPFVVFMHMRKLLNDVIRPLKKGDGRSAWNVLIVDTLAMRMLSSCCKMHNIMEEGITIVEDLNKRREPLPTLEAIYLIAPTAESIDKLIQDYCARNLYKCAHVFFTEACSDQLFSTLSKSAAARFIKTLKEINIAFTPYESQVFNLDSPDTFFLYYNAQKQGGLTSNLERIAEQIATVCATLGEYPSLRYRADFERNVELGHLVEQKLDAYKADDPSMGEGADKARSQLIIIDRGYDAITPLLHELTLQAMCYDLLGIENDVYKYETGGSDENLEKEVLLDENDDLWVEMRHKHIAVVSQEVTKNLKKFSESKGNKGTMDSKSIKDLSMLIKRMPQHKKELNKFSTHISLAEECMKQYQQGVDKLCKVEQDLSTGIDAEGERVRDAMKLMVPLLIDPAVRCEDRLRLILLYILSKNGITDENLNKLLQHANISMADKETITNAAYLGLNIVTDTGRKKTWTPTKKERPHEQVYQSSRWVPVIKDIIEDAIDERLDTKHFPFLAGRQVNQGYRAPASARYGQWHKERGQQSNYRSGPRLIIYIIGGVTFSEMRACYEVTAARKPWEVVIGSDRIITPDKFLTNLRDLNKPRDI | soluble
KAFIDIFDSFDPEPIACGSIAQVYKGVLEGKPVAVKILRPHLIDIINIDLSILDDFKPVMKKVMGVGKNFDIDAFLLEIREMLTREVDLRIEAVNMRRFEDNFKNVKNVSVPKIYPDYC | not soluble
MPAINAKRVYRIMRQNALLLERKPAVPPSKRAHTGRVAVKESNQRWCSDGFEFCCDNGERLRVTFALDCCDREALHWAVTTGGFNSETVQDVMLGAVERRFGNDLPSSPVEWLTDNGSCYRANETRQFARMLGLEPKNTAVRSPESNGIAESFVKTIKRDYISIMPKPDGLTAAKNLAEAFEHYNEWHPHSALGYRSPREYLRQRACNGLSDNRCLEILEHHHHHH | soluble
RSSLRKKEFGSKERLLEELRCKKTVLHEVDVTLDPDTAHPHLFLYEDSKSVRLEDSRQILPDRPERFDSWPCVLGRETFTSGRHYWEVEVGDRTDWAIGVCRENVVKKGFDPMTPDNGFWAVELYGNGYWALTPLRTSLRLAGPPRRVGVFLDYDAGDISFYNMSNGSLIYTFPSISFSGPLRPFFCLWSCGKKPLTICSTANGPEKVTVIANVQDD | not soluble
MGSDKIHHHHHHMLHYTKEDLLELGAEITTREIYQQPDVWREAFEFYQAKREEIAAFLQEIADKHDYIKVILTGAGTSAYVGDTLLPYFKEVYDERKWNFNAIATTDIVANPATYLKKDVATVLVSFARSGNSPESLATVDLAKSLVDELYQVTITCAADGKLALQAHGDDRNLLLLQPAVSNDAGFAMTSSFTSMMLTTLLVFDPTEFAVKSERFEVVSSLARKVLDKAEDVKELVDLDFNRVIYLGAGPFFGLAHEAQLKILELTAGQVATMYESPVGFRHGPKSLINDNTVVLVFGTTTDYTRKYDLDLVREVAGDQIARRVVLLSDQAFGLENVKEVALGCGGVLNDIYRVFPYIVYAQLFALLTSLKVENKPDTPSPTGTVNRVVQGVIIHEYQK | not soluble
MGSDKIHHHHHHMEVLSGECRSASSVASAGGGHAESWARYASMDRKGESSMAAQQPTILATSGGYKAGRRSRLEFDALLHHAVELSGVTGRAPRVTHIGTAAGDQRSFNAELDQAAKIAGFDFSHLNLFTMPSIDDPEAHLLEQDVVWVNGGSVVNLLAVWRAHGLDGILRRVWEAGVVLAGVSAGSICWFQGGTTDSYGPQLRPVTNALGFLPYANGVHYDSEVQRRPLVHRLVADGTLGETHCTDDGAGLVYFGTHLAEAVTEVRGKAAYRVTRHIQGGGAATAAEERLEARFLG | not soluble
MSLKILFAVSECTPFVKSGGLADVAGALPKALARLGNEVAVMLPKYSQIPEPWKKRMKKQAECTVAVGWRQQYCGIEHMAENDVNYYFIDNEYYFNRDSLYGHYDDGERFAFFSRAVLEAAKVVNVQADIVHTHDWHTAMVNYLLKEEYRKHPFYERMKSVLTIHNLQFQGIFPPDVTHDLLGLEMDHFHYERLECNGFVNFMKAGIIAADHVTTVSPTYRNEIMTPYYGEQLEQVLQYREDDVTGILNGIDDTFYQPKSDPYIEAQYDSGDLACKLENKTKLQQRMGLPEKNDIPLISMVTRLTKQKGLDLVRRIMHELLEEQDIQLVVLGTGEREFEDYFRYAEFAFHEKCRAYIGFDEPLAHQIYAGSDMFLMPSKFEPCGLGQLIALQYGAIPIVRETGGLYDTVRAYQEEEGTGNGFTFSAFNAHDLKFTIERALSFYCQQDVWKSIVKTAMNADYSWGKSAKEYQRIFEQVTRSGRDVLEEGHHHHHH | soluble
MFERFDSDRSRYASLGVVSSLPSGLIDSIWLIIDLNLKGVIPLNDLLHFDLLNNNGKVTVHFSQENSSVEMAIDLPFSYSTAYPSRIFAFDDGHRETILLPAEMLES | soluble
MTATIQNEKVIVSISDKGAELQSVRLKEDNTEYLWQGDSTYWGRRAPILFPIVGRLVDNTYYVDGKPYSLTQHGFARDLTFFVKEQSETKITYIVTSNEETLKKYPYEFELLVSYELNGQSVHITYEVNNPTSKEMFFSIGAHPGFNFPLLDGESFTDYHLSFNGSERLETSVLEGPYLSNKKQLIAENTTELPLTYDLFKNDALIFEHMNTNEISIRSHKHNKFVKVEFDGFPFVGVWTPGDNAPFLCIEPWYGIADEVNPAKDFKNKKGIQSLQANETFTCRYSITIGLEHHHHHH | soluble
MQVSLPREDTVYIGGALWGPATTWNLYAPQSTWGTDQFMYLPAFQYDLGRDAWIPVIAERYEFVDDKTLRIYIRPEARWSDGVPITADDFVYALELTKELGIGPGGGWDTYIEYVKAVDTKVVEFKAKEENLNYFQFLSYSLGAQPMPKHVYERIRAQMNIKDWINDKPEEQVVSGPYKLYYYDPNIVVYQRVDDWWGKDIFGLPRPKYLAHVIYKDNPSASLAFERGDIDWNGLFIPSVWELWEKKGLPVGTWYKKEPYFIPDGVGFVYVNNTKPGLSDPAVRKAIAYAIPYNEMLKKAYFGYGSQAHPSMVIDLFEPYKQYIDYELAKKTFGTEDGRIPFDLDMANKILDEAGYKKGPDGVRVGPDGTKLGPYTISVPYGWTDWMMMCEMIAKNLRSIGIDVKTEFPDFSVWADRMTKGTFDLIISWSVGPSFDHPFNIYRFVLDKRLSKPVGEVTWAGDWERYDNDEVVELLDKAVSTLDPEVRKQAYFRIQQIIYRDMPSIPAFYTAHWYEYSTKYWINWPSEDNPAWFRPSPWHADAWPTLFIISKKSDPQPVPSWLGTVDEGGIEIPTAKIFEDLQKATMHHHHHH | soluble
MELLLSKVTDAGIDPSSVSGEEAITLWEHIGRHIASTSREKAHCLIISAEYRREIKQLCDSIEELRQALELLSLPEDVEDILSVKASLSERLVEVGDYNSALTEYIASTNIAVEYGFIDEYVLAIIGMGNLCDAYGDHNRALRYYQKIDAIDHAISSRSLRLRYKLYMLACYISLKRVAEASELLGECEELSILVSDKNLAAQTHLYRAKLHRLQEEYSEALLSISSIKYTTGSATTYWLSTMVKIETAYCLNGVGHTSLANLLLESIGKRIKKHSSPILAKRFYNAMSKVSASQGQFQQALSCEKRAFRIESDLIKHIPISELGAAQLRRLSRFELQLKLILSEIENKEL | not soluble
MSLDTMIASLEQSKKRAEEELSETESIRKEAEKLHKELQQQIIELNSKKDKMLEEAEQQAAEKVKAAMKEAEDIIHELRTIKEEHKSFKDHELINAKKRLEGAMPAFEKSKKPEKPKTQKRDFKPGDEVKVLTFGQKGTLLEKTGGNEWNVQIGILKMKVKEKDLEFIKSAPEPKKEKMITAVKGKDYHVSLELDLRGERYENALSRVEKYLDDAVLAGYPRVSIIHGKGTGALRKGVQDLLKNHRSVKSSRFGEAGEGGSGVTVVELKEGHHHHHH | soluble
MDRFEIKEEFLLNGQSFKILSGAIHYFRVDPSDWHHSLYNLKALGFNTVETYVPWNLHEPQKGTFHFEGILDLERFLKLAQELGLYAIVRPSPYICAEWEFGGFPAWLLNEPGRMRSNNPTYLKHVAEYYDVLMEKIVPHQLANGGNILMIQIENEYGSFGEEKAYLRAIRDLMIARGVTAPFFTSDGPWRATLRAGSMIEDDILVTGNFGSKAKENFGMMQAFFEEHGKKWPLMCMEFWDGWFNRWKEPIIKRDPQELAESVREALALGSINLYMFHGGTNFGFMNGCSARGTIDLPQITSYDYDAPLDEQGNPTEKYFALQKMLHEEYPALPQAEPLVKESFAQTAIPLTNKVSLFATLETISQPVVSVYPQTMEQLGQNTGYLLYRTSIEKDAAEEKLRVIDGRDRLQLFVNQVHQATQYQTEIGEDIYVTLPQENNQIDILMENMGRVNYGHKLFADTQKKGIRTGVMADLHFMTQWQQYCLPMTSCEQVDYSREWQPDQPSFYQYHVELAEVKDTFIDVSKFGKGIVFVNQTNLGRFWNVGPTLSLYIPKGLLKEGQNEIVIFETEGTYQPEIQLVKEPLYKEMKEGLQ | not soluble
MGSDKIHHHHHHGCDDNTGGLGLGMFPGNDQNIKGKLSTFDVTTESVKTGDIYAKTNIGYIGKFTDETFGTYQAGFLAQLNCPDGLTFPEPYKEVTDASGNVISATGRMVVDDKDPENKDVTFIKDGNQIIGNIRAVELYLWYDSYFGDSLTACRLSVYELGGNGKETLNLDNAYYTDINPEDFYDSQNILGTKAYTAVDLSVKDSIRNLSTYVPSVHIAFKEDIATRVGGNILTAARKAKNADKEFNSQLFREAFQGIYVKSDYGDGTVLYIDQPQMNVVYKCYATDSITGKKLQKKDGSGKDSTYYSYRVFATTREVIQANQLKNDPERIDALIKEDKNTYLKSPAGIFTEATLPISDIQNELTGDTLNAVKLTFTNYNQTGDKKFGMAIPSTVMLVRKKFQDSFFKDNKLSDGVSSYLTSHTSSTNQYVFSNITKLVNACIAEKEEAKKNAGSSWDETKWLQENPDWNKVVLIPVLVTYDSSNTTTGQANIIRIQHDLKPGYVRLKGGSLGKTNPDYKLKLEVISTDFGLTTKSN | not soluble
GPGSMMRCGNGSGPAAPSAASPRSHEGCLPHWMECSSASSSFVEDRVRCLVHPVGVTSLLPAPLQRILANVLRILQQERAQLKGQRPCRRHSRSLGTGVDAEVTECIVDAAQAPSLAAAADIFSAFVAAHPMDGLALLSSPVALVGAALAEVVTLGQVESCVIPMPELLSFLDAAISVGHPGAMHSVAICLREGTAGLQRDVTSSETWLRCAASSGYLPAMHELGETYERGAPASSKLPAGAAEDAADWGEAMQWYRRAAEAGYPPSQLNLGKLLLAASEHAQSAGSAAAPQVAHLFTEAKRWLHACAATGVEEAVRLVKRIEEQGAR | soluble
MSDETDWYGPEAATFGDRLAAAREASGMTQAQLARRLGVKKATINGWEDDLSEPRANRLSMLAGLLNVSIVWLITGEGQGGEALNETDETARDMAALLTELRSLRADLQASGQRAARLEKQLRQIMEHSA | not soluble
KSITITTPYFVPSEILLHTLRTTAHRGVEVKLILPKKNDSLMVNWASKSFFETLLKAGVQIHEFNGGLLHTKSVVIDESHCIIGTVNLDMRSFWLNFEVSLIVDDPEFTKQLSWVLDGYLEQSTQVCFDTWRHRSWGNRFTERFFSMFSPLL | not soluble
DGDRLRQFLENNKKVLRFWCVWDERTTMYGDRRPYVLHYYLEDDSVEVLEINENNSGRDPFPVFLKRGPLPKVAVKTNTTLNPKFRKDQCYNAGDFRLGLFINVLGRDFYLHDADTFTKQWYKDNLGYTDEE | not soluble
